Protein production data for 28 sequences are collected here from a protein production outcome set (Wang et al. 2014).
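Note: failed if final PepcDB status was selected cloned or expressed and not failed if soluble or beyond.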

A short description of this data set: label from the status in PepcDB records.
As to “FPIPLPYCWLCRALIKRIQAMIPKGALAVAVAQVCRVVPLVAGGICQCLAERYSVILLDTLLGRMLPQLVCRLVLRCSM”, the protein production entry is “failed”.
The entry for “FRAAAVRVRVPATSANLGPGFDALGLALGLYDDVVVRVADSGLHIDIAGEGSETLPRDEKHLLVRSLRTAFDLLGGQPRGLEIVCANRIPHGRGLGSSSAAICAGIVAARAVTIGGEARLDDAALLDLATEIEGHPDNVAACLLGGFTLSWMES” is “failed”; for “GAEKEDLVQEGILGLLKAIKFYDETKSSFSSFAFLCIRREMISAIRKANTQKHMVLNEALKTNAILEDSAYFDDEGHNINNYKSSESNPEEAYLLKEEIEEFKKFSENNFSKFEKEVLTYLIRGYSYREIATILSKNLKSIDNTIQRIRKKSEEWIKEEENIKR” it is “not failed”.
Next, “GDGLKVSFDVTNTGKVAGADTPQLYVTSGQRKAMLRLAGFQKVDLAPGETKRVTLNVEPRILADYDTAKPGWTIAAGTYPLYVGRNAGEPVLTGSAKLKSWSR”: “failed”.
Next, “GEERKSSSWGRVDAMELPNYSRQLLQQLYTLCKEQQFCDCTISIGTIYFRAHKLVLAAASLLFKTLLDNTDTISIDASVVSPEEFALLLEMMYTGKLPVGKHNFSKIISLADSLQMFDVAVSCKNLLTSLVNCSVQGQVVRDVSAPSSETFRKEPEKPQVEILSSEGAGEPHSSPELAATPGGPVKAETEEAAHSVSQEMSVNSPTAQESQRNAETPAETPTTAEACSPSPPVQTFSEAKKTSTEPGCERKHYQLNFLLENEGVFSDALMVTQDVLKKLEMCSEIKGPQKEMIVKCFEGEGGHSAFQRILGKVREESLDVQTVVSLLRLYQYSNPAVKTALLDRKPEDVDTVQPKGSTEEGKTLSVLLLEHKEDLIQCVTQLRPIMESLETAKEEFLTGTEKRVILNCCEGRTPKETIENLLHRMTEEKTLTAEGLVKLLQAVKTTFPNLGLLLEKLQKSATLPSTTVQPSPDDYGTELLRRYHENLSEIFTDNQILLKMISHMTSLAPGEREVMEKLVKRDSGSGGFNSLISAVLEKQTLSATAIWQLLLVVQETKTCPLDLLMEEIRREPGADAFFRAVTTPEHATLETILRHNQLILEAIQQKIECKLFTSEEEHLAETVKEILSIPSETASPEASLRAVLSRAMEKSVPAIEICHLLCSVHKSFPGLQPVMQELAYIGVLTKEDGEKETWKVSNKFHLEANNKEDEKAAKEDSQPGEQNDQGETGSLPGQQEKEASASPDPAKKSFICKACDKSFHFYCRLKVHMKRCRVAKSKQVQCKECSETKDSKKELDKHQLEAHGAGGEPDAPKKKKKRLPVTCDLCGREFAHASGMQYHKLTEHFDEKPFSCEECGAKFAANSTLKNHLRLHTGDRPFMCKHCLMTFTQASALAYHTKKKHSEGKMYACQYCDAVFAQSIELSRHVRTHTGDKPYVCRDCGKGFRQANGLSIHLHTFHNIEDPYDCKKCRMSFPTLQDHRKHIHEVHSKEYHPCPTCGKIFSAPSMLERHMVTHVGGKPFSCGICNKAYQQLSGLWYHNRTHHPDVFAAQNHRSSKFSSLQCSSCDKTFPNTIEHKKHIKAEHADMKFHECDQCKELFPTPALLQVHVKCQHSGSQPFRCLYCAATFRFPGALQHHVTTEHFKQSETTFPCELCGELFTSQAQLDSHLESEHPKVMSTETQAAASQMAQVIQTPEPVAPTEQVITLEETQLAGSQVFVTLPDSQASQASSELVAVTVEDLLDGTVTLICGEAK”: “not failed”.
For “GEVKQIVGTPRDITQRKRREQMLKSRRRKIEALYRATSGLLSVETRDAVPGRIAEVLQEVFDFPLRHVGLVEGEMLVPKETVGEDLSRMPEPKAQPLSEDLVATRAIQAGEAVVVESTGGLENDLDYGTLSTLAGIPIGGHGAVVVGKEAGTFDALDLRLLEVLGGYGTLVLGRLEREERLVQAREEAEEAAQLKSAMLANMSHEVRTP”, the protein production entry was “failed”.
For “GGVMHYTDKAALPADGEAREVAALFDTWNAALATGNPHKVADLYAPDGVLLPTVSNEVRASREQIENYFEMFLTKKPKGVINYRTVRLLDDDSAVDAGVYTFTLTDKNGKKSDVQARYTFVYEKRDGKWLIINHHSSAMPEVDTATATAAVTKAK”, the protein production result is on record as “not failed”.
Next, “GHMEERVLGMPAVESNMFPLGKQAPPFALTNVIDGNVVRLEDVKSDAATVIMFICNHCPFVKHVQHELVRLANDYMPKGVSFVAINSNDAEQYPEDSPENMKKVAEELGYPFPYLYDETQEVAKAYDAACTPDFYIFDRDLKCVYRGQLDDSRPNNGIPVTGESIRAALDALLEGRPVPEKQKPSIGCSIKWKPSA”: “not failed”; “GHMPTKQQLLYEGKAKKIYATDEPDVLWVEYKDSATAFNGEKKATIAGKGRLNNEISSLLFLKLREAGIANHFIEKLSPTEQLVRRVTIIPLEVVVRNVVAGSLAKRIGLEEGTPLEAPLVEFYYKNDDLGDPLLLEDHIFILKLASREEVAALKQAALAVNDVLRLHFAERNVRLIDFKLEFGRTADGAILLADEISPDTCRLWDAKTNEKLDKDVFRRDLGSLTDAYEVILQRLGGESACTK”: “not failed”.
The entry for “GHPTEVLCLMNMVLPEELLDDEEYEEIVEDVRDECSKYGLVKSIEIPRPVDGVEVPGCGKIFVEFTSVFDCQKAMQGLTGRKFANRVVVTKYCDPDSYHRRDFW” is “not failed”; for “GIPSLVATAERRMKLVPGSVVMQFASIGFDVAVFELSMALCTGSRLVIVPDESRVAGPELTDFMAAHAVTHAIIPPSLLAALPSGCDVPEGCTVLVGTETVPPELIGRWAERLNLLAAYGLTEATVNNTLWQAQPGWDSAVPIGIP” it is “failed”; for “GKIVEIGVGFYLEVAKRLRESGIDILVVDINEKAINYARKQGIKGVVDDIFNPTLGIYKDAKAIYSIRPAPEMMKPLLDLARKLKIPLYIVPLTGDR” it is “failed”.
Next, “GKSFDAVRRTLSTELAQLRDDISRLMQAAVEAGAEAADDGEAVVISGERKLLDVTDIASDMDRLRKMFSLFEKKTDLLQLLDVSSRAQGVQIYIGGDSQLVPMEEVSVITAPYGVDGKVIGTLGVIGPTRMAYERVIPIVDITARLLSNALSHNQ”: “failed”.
As for “GKVYTINSGPIYANPIIHHQVNEKIGYLVYSAFESGFDQELFDVFKEFKSQNITELILDLRYNGGGDVTSANLISSCIAGDLCIDKTFASYRYNDERMKVLGNQRPIQKFAYSQYDNLSTSLSAGGLNLRKIYCLVTDDSASASELVINALRGIDIEVILIGTTTHGKNVGMEGVELTAGTDKYLLFPITFQAYNAKGFGDFENGFTPDYEINENKPNGEYFEGYGDFGAESDPLYAKAISLISGNEVTT”, the protein production result is recorded as “failed”.
Next, “GLPRRAVTQLVEQPLVVVDFLAHITAQGGHAAVIGWKDLAYAGVIDSGGVCENIIAIPNPGTEPLNVAAVLCEGLDVVVYKGPEISLSPTRARPLLGKLRQGTAALVMVGTKVSSPALSVDAEITDYVGIGAGSGRIRGVEMQVRAVSKTHGVRSGKVLISRP”: “failed”.
The entry for “GMKAADFTYVTVHGDNSRMSRLKAQYTMLFFYDPDCSNCRKFEKLFAEIPAFVEMVENGTLRVLAIYPDENREEWATKAVYMPQGWIVGWNKAGDIRTRQLYDIRATPTIYLLDGRKRVILKDTSMEQLIDYLATQAG” is “not failed”; for “GNLSFLATSDGASLAYRLDGAAEKPLLALSNSIGTTLHMWDAQLPALTRHFRVLRYDARGHGASSVPPGPYTLARLGEDVLELLDALEVRRAHFLGLSLGGIVGQWLALHAPQRIERLVLANTSAWLGPAAQWDERIAAVLQAEDMSETAAGFLGNWFPPALLERAEPVVERFRAMLMATNRHGLAGSFAAVRDTDLRAQLARIERPTLVIAGAYDTVTAASHGELIAASIAGARLVTLPAVHLSNVEFPQAFEGAVLSFLGA” it is “not failed”.
The entry for “GPHQRLEKLDSLLSDYDILSLSNIQQHSVRKRDLQTSTHVETLLTFSALKRHFKLYLTSSTERFSQNFKVVVVDGKNESEYTVKWQDFFTGHVVGEPDSRVLAHIRDDDVIIRINTDGAEYNIEPLWRFVNDTKDKRMLVYKSEDIKNVSRLQSPKVCGYLKVDNEELLPKGLVDREPPEGKT” is “not failed”; for “GQGVSRSGALDLGALRSANRTVGNPSDMACVESVLGGLSFSCHGSAVIAITGAHTPVTITSASGLQWQASNYQPIELETGDRVSLGSPKAGLRSYLAIRGGFDVTPVLGSLSTDTLAQLGPEALATGDRLGFTAPVNGTSVSLNEAPAFELPTTANIVTLDVVMGPRTDWFTENAIQRLSSQLWRVTPQSNRVGIRLAGDTPLERSNHQELPSEGTSVGAIQVPASGQPVLFLADHPLTGGYPVIASVASHHLDLAGQIPVNAQIRFNPLGAFEEMQPSTEASFSTADAKNNS” it is “failed”; for “GQLDLLRSNTGLLYRIKDSQNAGKMKGSDNQEKLVYQIIEDAGNKGIWSRDVRYKSNLPLTEINKILKNLESKKLIKAVKSV” it is “not failed”.
For the sequence “GQVDGEDVVSISSADLDETEGNLNMTTVSVRSGMTLSQVISRWLFTDDTIVPIEQVFPPGQSTEEVEESNRTAFISSESSATIAAMNYLNIPVEVEVAEVLTDSAATGIFEPGDKLLSIDGTAISTPGDAQTIVRSKAPGDEITISYERNDAESQATITLREHPDDSSVALLGISMLSVP”, the protein production result is “failed”.
Turning to “GRRFVMVPGIGGSGPEHWQSHWESLYPNTLRIEPNSWDEPDLADWFAALDRAVAAAPYPPVLVCHSLGCLLFAHWRAASSRAIAAAFLVAVPDPSGPAFPAQAKAFGALPATGFGERPVLAVASENDPYDPEASAIAWAVRQGAWPRRLGPRGHLNEASNIGAWPEGQELLADFLDKIGE”, the protein production entry is on record as “failed”.
The entry for “GSFQYVPVQLQGGAPWGFTLKGGLEHCEPLTVSKIEDGGKAALSQKMRTGDELVNINGTPLYGSRQEALILIKGSFRILKLIVRRRN” is “not failed”; for “GSGCPLLENVISKTINPQVSKTEYKELLQEFIDDNATTNAIDELKECFLNQTDETLSNVEVFMQLIYDSSLCDLF” it is “failed”.
Next, “GSHMEKVPGEMEIERRERSEELSEAERKAVQAMWARLYANCEDVGVAILVRFFVNFPSAKQYFSQFKHMEDPLEMERSPQLRKHACRVMGALNTVVENLHDPDKVSSVLALVGKAHALKHKVEPVYFKILSGVILEVVAEEFASDFPPETQRAWAKLRGLIYSHVTAAYKEVGWVQQVPNATTPPATLPSSGP”: “not failed”; “GSHMPVPSFGEAMAYFAMVKRYLTSFPIDDRVQSHILHLEHDLVHVTRKNHARQAGVRGLGHQS”: “not failed”.
The entry for “GSIPRVLISADRSSSGKTTISMGLMAALVSRGYKVQPFKVALDYIDPSYHTEITGRFCRNLDGYLMDEHGILDVYTHACETGGGADIAIIEGVRGLFEGFESLSDVGSTAQIAKILKCPVVFVINARSITRSAAALIGGYKNFDPDVEIAGVILNNIGGRRHAQKAKEAIEHYTGVPVLGIIPRDPSMQISMRHLGLMPALEGRRRFGDGGFENRLHGIEEIINKGIDVDRFLGIAESAKPLTALENSIFSPAVNENSQKPKIGVALDEAFNFYYRDNIDLLEIAGAEIVYFSPVNDPGLPEVDGLYIGGGYPELFAAELEANETMRKSIKEASAAGMPIYAECGGLMYLTEKISTGVPGKGTYHDASMPESTYSMVGALPGHTIMGQTRVVSYNIGTLARDCPIGKKGNSFKGHEFHHSEILEIPDDAEFAIALTRGTGIRGDRDGLIVNNTIGSYAHLHGVAYRELAGSLVEAARKFRDS” is “failed”; for “GSKGSRIELGDVTPHNIKQLKRLNQVIFPVSYNDKFYKDVLEVGELAKLAYFNDIAVGAVCCRVDHSQNQKRLYIMTLGCLAPYRRLGIGTKMLNHVLNICEKDGTFDNIYLHVQISNESAIDFYRKFGFEIIETKKNYYKRIEPADAHVLQKNLKVPSGQNADVQKTDN” it is “failed”.
